Laboratory results taken from patent publication US20090149389A1 (PURDUE RESEARCH FOUNDATION, published 2009).

Assays:
Experiment in all cases: cell-based or functional assay
Abl (h) = Abl (h) (human (h), UniProt P00519 27-1130, limits assumed)
AMPK (r) = AMPK (r) (rat (r), UniProt Q09137 1-552, limits assumed)
BTK (h) = BTK (h) (human (h), UniProt Q06187 1-659)
CaMKI (h) = CaMKI (h) (human (h), UniProt Q14012 1-370, limits assumed)
CDKI/cyclinB (h) = CDKI/cyclinB (h) (human (h), UniProt P06493 1-297)
CK2 (h) = CK2 (h) (human (h), UniProt P68400 1-391)
Chain of CK2 (h) (P68400 whole entry): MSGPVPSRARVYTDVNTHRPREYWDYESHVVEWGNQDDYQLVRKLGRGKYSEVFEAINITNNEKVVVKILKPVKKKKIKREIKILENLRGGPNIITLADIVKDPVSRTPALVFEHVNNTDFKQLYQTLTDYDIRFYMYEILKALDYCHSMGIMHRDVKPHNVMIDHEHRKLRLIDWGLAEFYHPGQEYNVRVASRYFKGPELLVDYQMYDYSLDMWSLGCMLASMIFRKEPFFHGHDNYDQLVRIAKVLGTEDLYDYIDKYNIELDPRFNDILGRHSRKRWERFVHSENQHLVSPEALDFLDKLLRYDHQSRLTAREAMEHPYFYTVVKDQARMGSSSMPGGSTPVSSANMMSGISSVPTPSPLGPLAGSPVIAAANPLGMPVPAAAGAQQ

EGFR (h) = EGFR (h) (human (h), UniProt P00533 696-1210, limits assumed)
EphA2 (h) = molecular target: T1, EphA2 (h) (human (h), UniProt P29317 591-976, limits assumed)
T1 sequence (looked up): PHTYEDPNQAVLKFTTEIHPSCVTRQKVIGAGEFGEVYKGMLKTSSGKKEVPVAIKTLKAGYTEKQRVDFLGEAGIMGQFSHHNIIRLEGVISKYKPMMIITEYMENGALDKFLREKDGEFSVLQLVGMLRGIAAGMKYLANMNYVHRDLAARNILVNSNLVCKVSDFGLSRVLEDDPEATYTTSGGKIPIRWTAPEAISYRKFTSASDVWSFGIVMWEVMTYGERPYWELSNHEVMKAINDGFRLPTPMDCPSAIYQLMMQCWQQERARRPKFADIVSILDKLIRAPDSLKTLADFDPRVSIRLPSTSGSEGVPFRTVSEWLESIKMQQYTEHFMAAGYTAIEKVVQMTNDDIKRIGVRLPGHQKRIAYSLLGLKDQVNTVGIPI

IGF-IR (h) = IGF-IR (h) (human (h), UniProt P08069 959-1367, limits assumed)
Chain of IGF-IR (h) (P08069 959-1367 limits assumed): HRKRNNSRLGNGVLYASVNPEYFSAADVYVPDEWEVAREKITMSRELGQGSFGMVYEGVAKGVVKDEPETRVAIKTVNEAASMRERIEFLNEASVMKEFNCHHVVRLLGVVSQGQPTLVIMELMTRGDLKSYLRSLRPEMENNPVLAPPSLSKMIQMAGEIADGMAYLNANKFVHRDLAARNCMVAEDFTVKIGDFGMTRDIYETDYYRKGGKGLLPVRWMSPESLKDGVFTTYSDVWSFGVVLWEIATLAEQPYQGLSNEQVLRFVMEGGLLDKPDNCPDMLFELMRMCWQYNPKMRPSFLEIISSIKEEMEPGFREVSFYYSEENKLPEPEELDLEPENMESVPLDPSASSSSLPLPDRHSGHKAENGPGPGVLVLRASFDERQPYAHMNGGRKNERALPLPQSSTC

IRAK4 (h) = molecular target: T2, IRAK4 (h) (human (h), UniProt Q9NWZ3 1-460, limits assumed)
T2 sequence (looked up): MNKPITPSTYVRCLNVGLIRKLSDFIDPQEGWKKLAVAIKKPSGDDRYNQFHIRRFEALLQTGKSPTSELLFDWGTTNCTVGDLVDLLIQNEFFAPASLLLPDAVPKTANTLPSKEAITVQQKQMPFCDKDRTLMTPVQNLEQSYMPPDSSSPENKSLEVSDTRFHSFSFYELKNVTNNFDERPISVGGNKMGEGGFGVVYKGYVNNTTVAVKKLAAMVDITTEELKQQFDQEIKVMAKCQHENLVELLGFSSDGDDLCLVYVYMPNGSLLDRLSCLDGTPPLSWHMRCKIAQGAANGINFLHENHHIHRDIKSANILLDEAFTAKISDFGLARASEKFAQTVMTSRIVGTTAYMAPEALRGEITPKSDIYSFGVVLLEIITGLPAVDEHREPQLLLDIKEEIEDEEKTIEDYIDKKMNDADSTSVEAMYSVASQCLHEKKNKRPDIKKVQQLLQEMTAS

JAK3 (h) = JAK3 (h) (human (h), UniProt P52333 781-1124, limits assumed)
Chain of JAK3 (h) (P52333 781-1124 limits assumed): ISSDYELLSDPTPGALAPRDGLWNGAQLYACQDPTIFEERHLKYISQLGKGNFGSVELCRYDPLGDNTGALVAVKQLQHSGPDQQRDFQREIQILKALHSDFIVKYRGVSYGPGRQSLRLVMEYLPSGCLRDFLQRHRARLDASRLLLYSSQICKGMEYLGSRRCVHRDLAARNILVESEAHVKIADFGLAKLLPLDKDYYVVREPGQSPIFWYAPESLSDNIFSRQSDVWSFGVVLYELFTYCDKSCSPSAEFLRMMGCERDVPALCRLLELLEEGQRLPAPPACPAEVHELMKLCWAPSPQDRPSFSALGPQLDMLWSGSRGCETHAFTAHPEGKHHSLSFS

KDR (tl) = KDR (tl) (UniProt P35968 790-1356, limits assumed)
L1MK1 (h) = L1MK1 (h) (human (h), UniProt P53667 285-638, limits assumed)
Chain of L1MK1 (h) (P53667 285-638 limits assumed): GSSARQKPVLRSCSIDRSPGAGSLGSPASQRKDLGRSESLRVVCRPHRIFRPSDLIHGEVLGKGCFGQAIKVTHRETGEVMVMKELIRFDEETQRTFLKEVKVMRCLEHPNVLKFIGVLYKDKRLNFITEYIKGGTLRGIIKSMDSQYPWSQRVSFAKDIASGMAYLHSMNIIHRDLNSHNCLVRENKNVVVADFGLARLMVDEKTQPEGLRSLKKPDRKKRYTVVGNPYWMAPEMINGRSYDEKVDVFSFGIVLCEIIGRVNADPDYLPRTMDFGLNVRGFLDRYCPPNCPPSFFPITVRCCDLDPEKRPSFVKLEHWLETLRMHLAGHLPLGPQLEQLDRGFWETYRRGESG

MAPKI (h) = MAPKI (h) (human (h), UniProt P28482 1-360, limits assumed)
MEKI (h) = MEKI (h) (human (h), UniProt Q02750 1-393)
Met (h) = Met (h) (human (h), UniProt P08581 974-1390, limits assumed)
MLCK (h) = MLCK (h) (human (h))
PDGFRβ (h) = PDGFRβ (h) (human (h), UniProt P09619 558-1106, limits assumed)
Chain of PDGFRβ (h) (P09619 558-1106 limits assumed): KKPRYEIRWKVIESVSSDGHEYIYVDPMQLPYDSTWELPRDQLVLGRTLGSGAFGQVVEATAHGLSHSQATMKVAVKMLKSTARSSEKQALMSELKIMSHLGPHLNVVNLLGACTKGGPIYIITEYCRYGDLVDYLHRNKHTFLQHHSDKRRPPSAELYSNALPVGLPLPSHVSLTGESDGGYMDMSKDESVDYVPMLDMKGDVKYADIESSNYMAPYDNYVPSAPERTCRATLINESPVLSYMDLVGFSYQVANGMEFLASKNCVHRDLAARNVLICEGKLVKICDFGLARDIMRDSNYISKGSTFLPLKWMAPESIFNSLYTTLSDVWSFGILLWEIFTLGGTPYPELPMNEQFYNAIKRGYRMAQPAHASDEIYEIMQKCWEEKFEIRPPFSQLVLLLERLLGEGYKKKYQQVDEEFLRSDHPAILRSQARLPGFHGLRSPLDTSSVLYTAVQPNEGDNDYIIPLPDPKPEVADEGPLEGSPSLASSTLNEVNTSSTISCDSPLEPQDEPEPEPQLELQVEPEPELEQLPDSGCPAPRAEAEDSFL

PKA (h) = PKA (h) (human (h), UniProt P17612 1-351)
PKG1β (h) = molecular target: T3, PKG1β (h) (human (h), UniProt Q13976-2 1-686)
T3 sequence (looked up): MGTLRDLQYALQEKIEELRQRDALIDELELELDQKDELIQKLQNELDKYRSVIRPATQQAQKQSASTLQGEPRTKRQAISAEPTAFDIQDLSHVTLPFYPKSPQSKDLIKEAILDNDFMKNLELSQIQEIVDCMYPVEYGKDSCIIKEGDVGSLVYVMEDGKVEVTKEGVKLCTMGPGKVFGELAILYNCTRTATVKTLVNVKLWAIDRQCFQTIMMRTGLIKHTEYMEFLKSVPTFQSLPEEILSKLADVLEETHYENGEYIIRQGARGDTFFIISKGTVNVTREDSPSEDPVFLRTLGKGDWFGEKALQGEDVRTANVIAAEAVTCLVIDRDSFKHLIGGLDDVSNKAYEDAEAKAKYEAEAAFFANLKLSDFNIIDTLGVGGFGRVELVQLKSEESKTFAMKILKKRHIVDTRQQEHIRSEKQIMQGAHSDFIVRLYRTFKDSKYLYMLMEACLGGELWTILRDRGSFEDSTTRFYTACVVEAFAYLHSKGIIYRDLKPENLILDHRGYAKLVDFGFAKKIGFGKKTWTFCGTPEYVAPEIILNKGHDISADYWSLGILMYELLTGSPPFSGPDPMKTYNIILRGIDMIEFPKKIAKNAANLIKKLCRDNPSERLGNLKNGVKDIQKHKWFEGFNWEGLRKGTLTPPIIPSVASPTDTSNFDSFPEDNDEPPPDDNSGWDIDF

Rsk2 (h) = Rsk2 (h) (human (h), UniProt P51812 1-740)
Chain of Rsk2 (h) (P51812 whole entry): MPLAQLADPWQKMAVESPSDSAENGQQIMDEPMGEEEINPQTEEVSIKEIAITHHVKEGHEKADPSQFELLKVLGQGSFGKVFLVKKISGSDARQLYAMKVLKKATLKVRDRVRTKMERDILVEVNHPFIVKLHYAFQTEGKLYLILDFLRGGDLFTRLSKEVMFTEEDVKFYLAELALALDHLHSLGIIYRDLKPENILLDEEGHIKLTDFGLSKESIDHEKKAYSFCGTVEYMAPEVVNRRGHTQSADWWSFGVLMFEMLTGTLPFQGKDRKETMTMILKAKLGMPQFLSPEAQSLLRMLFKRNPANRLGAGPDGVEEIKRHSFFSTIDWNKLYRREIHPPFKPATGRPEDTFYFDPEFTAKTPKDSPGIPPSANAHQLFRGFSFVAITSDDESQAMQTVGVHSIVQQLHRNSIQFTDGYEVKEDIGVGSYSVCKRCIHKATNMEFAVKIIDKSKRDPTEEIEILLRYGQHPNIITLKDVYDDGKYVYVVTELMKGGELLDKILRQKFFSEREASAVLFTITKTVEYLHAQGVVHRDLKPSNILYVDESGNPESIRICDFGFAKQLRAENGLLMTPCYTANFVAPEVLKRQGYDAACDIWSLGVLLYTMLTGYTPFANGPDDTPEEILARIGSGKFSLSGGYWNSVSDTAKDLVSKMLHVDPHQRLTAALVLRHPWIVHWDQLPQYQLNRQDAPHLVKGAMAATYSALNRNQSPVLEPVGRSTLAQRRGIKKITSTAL

SAPK2 a (h) = SAPK2 a (h) (human (h), UniProt Q16539 1-360)

Chain of Abl (h) (P00519 27-1130 limits assumed): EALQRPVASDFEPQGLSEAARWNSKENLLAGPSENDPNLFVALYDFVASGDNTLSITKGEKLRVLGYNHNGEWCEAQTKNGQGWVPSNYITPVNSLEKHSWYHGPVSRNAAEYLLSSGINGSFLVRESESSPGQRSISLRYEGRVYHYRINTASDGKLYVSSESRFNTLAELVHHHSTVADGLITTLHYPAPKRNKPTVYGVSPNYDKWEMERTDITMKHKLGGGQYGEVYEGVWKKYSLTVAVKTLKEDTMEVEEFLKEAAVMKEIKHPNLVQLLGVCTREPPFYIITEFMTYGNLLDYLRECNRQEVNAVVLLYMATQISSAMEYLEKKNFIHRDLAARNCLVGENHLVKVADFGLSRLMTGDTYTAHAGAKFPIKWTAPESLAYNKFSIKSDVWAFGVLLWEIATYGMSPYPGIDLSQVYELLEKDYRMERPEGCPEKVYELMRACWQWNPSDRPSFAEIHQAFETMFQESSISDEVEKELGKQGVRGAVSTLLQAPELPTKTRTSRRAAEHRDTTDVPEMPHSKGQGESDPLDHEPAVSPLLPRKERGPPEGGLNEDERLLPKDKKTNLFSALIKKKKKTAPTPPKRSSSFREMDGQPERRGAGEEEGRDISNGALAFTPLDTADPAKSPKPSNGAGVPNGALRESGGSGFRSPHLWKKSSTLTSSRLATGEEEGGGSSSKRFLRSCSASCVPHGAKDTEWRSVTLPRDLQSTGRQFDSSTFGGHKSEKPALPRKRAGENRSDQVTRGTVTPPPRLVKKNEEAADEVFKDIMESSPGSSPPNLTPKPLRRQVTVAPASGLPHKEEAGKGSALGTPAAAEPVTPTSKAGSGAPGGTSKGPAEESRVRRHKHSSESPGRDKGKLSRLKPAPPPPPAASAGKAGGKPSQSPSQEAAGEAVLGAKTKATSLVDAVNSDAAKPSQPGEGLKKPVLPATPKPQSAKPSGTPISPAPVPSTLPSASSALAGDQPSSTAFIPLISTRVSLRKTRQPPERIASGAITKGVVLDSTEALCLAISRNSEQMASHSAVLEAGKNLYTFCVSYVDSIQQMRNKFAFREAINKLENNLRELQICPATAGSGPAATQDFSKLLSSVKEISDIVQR
Chain of AMPK (r) (Q09137 whole entry): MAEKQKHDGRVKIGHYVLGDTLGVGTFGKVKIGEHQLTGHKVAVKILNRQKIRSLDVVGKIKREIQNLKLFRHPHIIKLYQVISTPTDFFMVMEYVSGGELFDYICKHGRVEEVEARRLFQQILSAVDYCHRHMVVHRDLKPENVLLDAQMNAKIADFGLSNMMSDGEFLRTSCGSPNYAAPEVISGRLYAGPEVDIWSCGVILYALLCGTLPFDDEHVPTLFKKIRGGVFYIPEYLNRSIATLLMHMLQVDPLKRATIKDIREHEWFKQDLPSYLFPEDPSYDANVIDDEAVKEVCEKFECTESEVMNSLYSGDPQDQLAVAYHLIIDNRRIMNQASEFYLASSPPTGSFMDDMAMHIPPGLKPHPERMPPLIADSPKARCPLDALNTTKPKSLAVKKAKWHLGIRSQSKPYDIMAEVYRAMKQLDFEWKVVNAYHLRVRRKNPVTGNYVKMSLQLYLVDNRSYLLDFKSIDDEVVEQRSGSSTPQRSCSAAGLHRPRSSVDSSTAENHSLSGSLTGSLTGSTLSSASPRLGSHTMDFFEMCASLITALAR
Chain of CaMKI (h) (Q14012 whole entry): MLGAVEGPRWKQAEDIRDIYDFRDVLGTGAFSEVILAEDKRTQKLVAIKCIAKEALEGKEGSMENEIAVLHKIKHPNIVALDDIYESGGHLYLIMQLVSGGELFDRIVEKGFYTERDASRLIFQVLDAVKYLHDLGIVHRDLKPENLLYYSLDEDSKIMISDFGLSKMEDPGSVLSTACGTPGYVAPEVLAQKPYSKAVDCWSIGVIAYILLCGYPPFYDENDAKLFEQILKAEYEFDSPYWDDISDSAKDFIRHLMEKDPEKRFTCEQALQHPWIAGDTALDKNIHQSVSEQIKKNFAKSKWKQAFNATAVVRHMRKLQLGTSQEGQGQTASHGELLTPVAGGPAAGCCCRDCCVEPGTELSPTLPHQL

Binder: WLRRIKAWLRRIKALNRQLGVAA
- Profile-1 @ = 30 µm (kinase profiler assay) (Abl (h)): 24
- Profile-1 @ = 30 µm (kinase profiler assay) (AMPK (r)): 36
- Profile-1 @ = 30 µm (kinase profiler assay) (BTK (h)): 5
- Profile-1 @ = 30 µm (kinase profiler assay) (CaMKI (h)): 9
- Profile-1 @ = 30 µm (kinase profiler assay) (CDKI/cyclinB (h)): 17
- Profile-1 @ = 30 µm (kinase profiler assay) (CK2 (h)): 114
- Profile-1 @ = 30 µm (kinase profiler assay) (EGFR (h)): 10
- Profile-1 @ = 30 µm (kinase profiler assay) (EphA2 (h)): 38
- Profile-1 @ = 30 µm (kinase profiler assay) (IGF-IR (h)): 227
- Profile-1 @ = 30 µm (kinase profiler assay) (IRAK4 (h)): 12
- Profile-1 @ = 30 µm (kinase profiler assay) (JAK3 (h)): 85
- Profile-1 @ = 30 µm (kinase profiler assay) (KDR (tl)): 27
- Profile-1 @ = 30 µm (kinase profiler assay) (L1MK1 (h)): 89
- Profile-1 @ = 30 µm (kinase profiler assay) (MAPKI (h)): 121
- Profile-1 @ = 30 µm (kinase profiler assay) (MEKI (h)): 14
- Profile-1 @ = 30 µm (kinase profiler assay) (Met (h)): 30
- Profile-1 @ = 30 µm (kinase profiler assay) (MLCK (h)): 4
- Profile-1 @ = 30 µm (kinase profiler assay) (PDGFRβ (h)): 42
- Profile-1 @ = 30 µm (kinase profiler assay) (PKA (h)): 80
- Profile-1 @ = 30 µm (kinase profiler assay) (PKG1β (h)): 15
- Profile-1 @ = 30 µm (kinase profiler assay) (Rsk2 (h)): 14
- Profile-1 @ = 30 µm (kinase profiler assay) (SAPK2 a (h)): 61
